T1: PhKγ2(h) (human, UniProt P15735 1-406, limits assumed)
T1 sequence (looked up): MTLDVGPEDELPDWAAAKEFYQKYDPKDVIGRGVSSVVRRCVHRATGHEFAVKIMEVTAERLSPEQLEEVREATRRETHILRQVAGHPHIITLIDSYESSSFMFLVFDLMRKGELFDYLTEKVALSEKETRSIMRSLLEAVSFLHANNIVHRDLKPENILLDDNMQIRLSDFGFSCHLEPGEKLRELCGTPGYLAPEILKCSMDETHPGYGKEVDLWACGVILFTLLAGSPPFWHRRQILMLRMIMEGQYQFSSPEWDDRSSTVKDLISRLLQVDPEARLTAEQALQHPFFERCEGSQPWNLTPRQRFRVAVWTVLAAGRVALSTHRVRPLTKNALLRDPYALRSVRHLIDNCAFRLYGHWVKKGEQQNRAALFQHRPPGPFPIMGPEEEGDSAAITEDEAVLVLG

T2: SAPK3(h) (human, UniProt P53778 1-367)
T2 sequence (looked up): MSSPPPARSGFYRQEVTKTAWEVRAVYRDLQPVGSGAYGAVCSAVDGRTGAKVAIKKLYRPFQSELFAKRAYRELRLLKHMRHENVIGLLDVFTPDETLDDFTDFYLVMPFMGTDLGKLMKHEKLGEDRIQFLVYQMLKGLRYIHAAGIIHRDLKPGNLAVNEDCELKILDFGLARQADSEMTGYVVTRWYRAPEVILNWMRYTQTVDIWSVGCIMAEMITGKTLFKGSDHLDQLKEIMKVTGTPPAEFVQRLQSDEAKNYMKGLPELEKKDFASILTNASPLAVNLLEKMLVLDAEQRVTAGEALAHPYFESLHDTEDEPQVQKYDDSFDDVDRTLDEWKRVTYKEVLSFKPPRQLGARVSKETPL

T3: TAK1(h) (human, UniProt O43318 1-303, limits assumed)
T3 sequence (looked up): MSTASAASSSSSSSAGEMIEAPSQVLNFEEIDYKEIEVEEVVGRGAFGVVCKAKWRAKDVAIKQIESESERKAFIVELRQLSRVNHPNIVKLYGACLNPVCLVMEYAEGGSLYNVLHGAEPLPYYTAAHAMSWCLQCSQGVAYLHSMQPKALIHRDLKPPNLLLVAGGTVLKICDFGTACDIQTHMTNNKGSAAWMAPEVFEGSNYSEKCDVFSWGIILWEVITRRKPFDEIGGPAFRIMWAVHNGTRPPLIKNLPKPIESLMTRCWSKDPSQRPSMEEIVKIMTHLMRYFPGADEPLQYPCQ

T4: EphA1(h) (human, UniProt P21709 569-976, limits assumed)
T4 sequence (looked up): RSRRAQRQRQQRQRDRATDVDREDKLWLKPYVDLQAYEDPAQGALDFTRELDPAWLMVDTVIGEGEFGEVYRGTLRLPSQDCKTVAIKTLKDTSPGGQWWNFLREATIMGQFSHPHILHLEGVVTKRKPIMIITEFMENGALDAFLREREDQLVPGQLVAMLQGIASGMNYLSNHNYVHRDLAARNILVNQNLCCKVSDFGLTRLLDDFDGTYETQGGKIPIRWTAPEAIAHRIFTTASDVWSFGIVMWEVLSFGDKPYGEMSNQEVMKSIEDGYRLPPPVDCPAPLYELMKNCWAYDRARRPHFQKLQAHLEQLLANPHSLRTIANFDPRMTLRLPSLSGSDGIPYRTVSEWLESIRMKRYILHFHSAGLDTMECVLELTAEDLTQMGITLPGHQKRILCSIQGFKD


Legend:
Test in all cases: cell-based or functional assay
[1] = target: Hck(h) (human, UniProt P08631 251-518, limits assumed)
[2] = target: Hck(h) activated (human, UniProt P08631 251-518, limits assumed)
[3] = target: HIPK2(h) (human, UniProt Q9H2X6 165-564, limits assumed)
[4] = target: HIPK3(h) (human, UniProt Q9H422 161-562, limits assumed)
[5] = target: IR(h) (human, UniProt P06213 1005-1310, limits assumed)
[6] = target: JAK2(h) (human, UniProt O60674 808-1132, limits assumed)
[7] = target: LIMK1(h) (human, UniProt P53667 285-638, limits assumed)
[8] = target: MAPK2(h) (human, UniProt P28482 1-360)
[9] = target: MSK2(h) (human, UniProt O75676 1-772, limits assumed)
[10] = target: PAK4(h) (human, UniProt O96013 1-591, limits assumed)
[11] = target: T1, PhKγ2(h)
[12] = target: PKCβII(h) (human, UniProt P05771-2 1-673)
[13] = target: ROCK-II(h) (human, UniProt O75116 11-552)
[14] = target: T2, SAPK3(h)
[15] = target: Src(T341M)(h) (human, UniProt P12931 1-536, limits assumed)
[16] = target: T3, TAK1(h)
[17] = target: Tie2(Y897S)(h) (human, UniProt Q02763 771-1124, limits assumed)
[18] = target: BTK(R28H)(h) (human, UniProt Q06187 1-659)
[19] = target: cKit(h) (human, UniProt P10721 544-976, limits assumed)
[20] = target: cKit(D816H)(h) (human, UniProt P10721 544-976, limits assumed)
[21] = target: EGFR(h) (human, UniProt P00533 696-1210, limits assumed)
[22] = target: T4, EphA1(h)
Also: test concentration or dose not given here.

Row | % activity [1] [%] | % activity [2] [%] | % activity [3] [%] | % activity [4] [%] | % activity [5] [%] | % activity [6] [%] | % activity [7] [%] | % activity [8] [%] | % activity [9] [%] | % activity [10] [%] | % activity [11] [%] | % activity [12] [%] | % activity [13] [%] | % activity [14] [%] | % activity [15] [%] | % activity [16] [%] | % activity [17] [%] | % activity [18] [%] | % activity [19] [%] | % activity [20] [%] | Binder | further results
1 | 72 | 81 | 90 | 105 | 85 | 119 | 92 | 93 | 52 | 89 | 38 | 75 | 77 | 79 | 76 | 177 | 87 | 24 | 43 | 143 | KAFAKLAARLYRKALARQLGVAA [MMI-0400] | % activity [21]: 16%; % activity [22]: 61%
2 | 72 | 82 | 73 | 93 | 96 | 133 | 88 | 98 | 56 | 94 | 46 | 82 | 74 | 84 | 70 | 122 | 83 | 74 | 53 | 126 | FAKLAARLYRKALARQLGVAA [MMI-0300] | % activity [21]: 21%; % activity [22]: 73%

Reference: US20160200782A1 (MOERAE MATRIX, published 2016)
